Non-standard residues stand in square brackets, D forms with d. No end group written: not given here. Phe(4-Ac) = CC(=O)c1ccc(C[C@H](N)C(=O)O)cc1
Experiment: PK of 20 kDa PEGylated relaxin polypeptides after a single subcutaneous injection in SD rats (Example 40)
Assay type: in vivo, Sprague-Dawley (SD) rats
Settings: for AUCinf / CL (mL/hr) / Cmax / MRT / Tmax / Vz / Terminal HL / Mean serum Conc.: 0.5 mg/kg SC; for AUCinf / CL (mL/hr) / Cmax / MRT / Tmax / Vz / Terminal HL: SD rats; for Terminal HL: non-compartmental; for Mean serum Conc.: male SD rats; for In vivo PK Term HL: 20K PEG
Text: This example evaluates the pharmacokinetic properties of 20 kDa PEGylated relaxin polypeptides following a single subcutaneous injection in SD rats.
1st order elimination model and Gauss-Newton (Levenberg-Hartley) model fit equation. […] FIG. 8A-8/compares group mean serum concentration versus time for all PEG-Relaxin compounds dosed. All dose groups had measurable serum PEG-Relaxin levels.

With “RLX-A-AA5-20KPEG-001: relaxin variant, B1 Ala, pAF at A chain position A5, 20K PEGylated (chain 1 QLYSXLANKCCHVGCTKRSLARFC; chain 2 ASWMEEVIKLCGRELVRAQIAICGMSTWS; not fully specified; non-natural residues)” the “AUCinf” value was 16095.9 ng·h/mL, the “CL (mL/hr)” value was 0.518 mL/min/kg and the “Cmax” value was 438.0 ng/mL. The “MRT” value was 29.4 h, the “Tmax” value was 25.0 h and the “Vz” value was 0.5474 L/kg. For the same substance, the “Terminal HL” value was 12.2 h, the “Mean serum Conc.” value (1 hr) was 19.9 ng/mL and the “Mean serum Conc.” value (2 hr) was 100.1 ng/mL. The “Mean serum Conc.” value (4 hr) was 185.0 ng/mL, the “Mean serum Conc.” value (8 hr) was 264.7 ng/mL and the “Mean serum Conc.” value (12 hr) was 434.3 ng/mL. For the same substance, the “Mean serum Conc.” value (25 hr) was 438.0 ng/mL, the “Mean serum Conc.” value (34 hr) was 353.5 ng/mL and the “Mean serum Conc.” value (50 hr) was 86.9 ng/mL. The “Mean serum Conc.” value (58 hr) was 62.4 ng/mL, the “Mean serum Conc.” value (73 hr) was 32.8 ng/mL and the “Mean serum Conc.” value (80 hr) was 22.1 ng/mL. The “Mean serum Conc.” value (pre-dose (PD)) was “BQL” and the “In vivo PK Term HL” value was 12.2 h.

For “RLX-A-AR18-20KPEG-001: relaxin variant, B1 Ala, pAF at A chain position R18, 20K PEGylated (chain 1 QLYSALANKCCHVGCTKXSLARFC; chain 2 ASWMEEVIKLCGRELVRAQIAICGMSTWS; not fully specified; non-natural residues)”, the “AUCinf” value was 12985.5 ng·h/mL, the “CL (mL/hr)” value was 0.64 mL/min/kg and the “Cmax” value was 345.9 ng/mL. For the same substance, the “MRT” value was 27.7 h, the “Tmax” value was 25.0 h and the “Vz” value was 0.6947 L/kg. For the same substance, the “Terminal HL” value was 12.5 h, the “Mean serum Conc.” value (1 hr) was 33.9 ng/mL and the “Mean serum Conc.” value (2 hr) was 109.7 ng/mL. The “Mean serum Conc.” value (4 hr) was 172.7 ng/mL, the “Mean serum Conc.” value (8 hr) was 270.5 ng/mL and the “Mean serum Conc.” value (12 hr) was 332.5 ng/mL. The “Mean serum Conc.” value (25 hr) was 398.6 ng/mL, the “Mean serum Conc.” value (34 hr) was 264.3 ng/mL and the “Mean serum Conc.” value (50 hr) was 76.7 ng/mL. For the same substance, the “Mean serum Conc.” value (58 hr) was 61.8 ng/mL, the “Mean serum Conc.” value (73 hr) was 25.0 ng/mL and the “Mean serum Conc.” value (80 hr) was 14.9 ng/mL. The “Mean serum Conc.” value (pre-dose (PD)) was “BQL” and the “In vivo PK Term HL” value was 12.5 h.

With “RLX-A-AV13-20KPEG-001: relaxin variant, B1 Ala, pAF substituted for valine 13 in the A chain, 20K PEG attached (chain 1 QLYSALANKCCHXGCTKRSLARFC; chain 2 ASWMEEVIKLCGRELVRAQIAICGMSTWS; not fully specified; non-natural residues)” the “AUCinf” value was 32230.5 ng·h/mL, the “CL (mL/hr)” value was 0.258 mL/min/kg and the “Cmax” value was 742.5 ng/mL. The “MRT” value was 32.7 h, the “Tmax” value was 25.0 h and the “Vz” value was 0.3254 L/kg. For the same substance, the “Terminal HL” value was 14.6 h, the “Mean serum Conc.” value (1 hr) was 44.9 ng/mL and the “Mean serum Conc.” value (2 hr) was 138.9 ng/mL. For the same substance, the “Mean serum Conc.” value (4 hr) was 345.7 ng/mL, the “Mean serum Conc.” value (8 hr) was 533.6 ng/mL and the “Mean serum Conc.” value (12 hr) was 630.1 ng/mL. The “Mean serum Conc.” value (25 hr) was 742.5 ng/mL, the “Mean serum Conc.” value (34 hr) was 540.7 ng/mL and the “Mean serum Conc.” value (50 hr) was 320.9 ng/mL. For the same substance, the “Mean serum Conc.” value (58 hr) was 209.4 ng/mL, the “Mean serum Conc.” value (73 hr) was 75.0 ng/mL and the “Mean serum Conc.” value (80 hr) was 58.7 ng/mL. The “Mean serum Conc.” value (pre-dose (PD)) was “BQL”.

In the case of “RLX-A-BV7-20KPEG-001: relaxin variant, B1 Ala, pAF at B chain position V7, 20K PEGylated (chain 1 QLYSALANKCCHVGCTKRSLARFC; chain 2 ASWMEE[Phe(4-Ac)](PEG 20 kDa)IKLCGRELVRAQIAICGMSTWS; not fully specified (bridges); ends and bridges not checked)”, the “AUCinf” value was 17260.9 ng·h/mL, the “CL (mL/hr)” value was 0.482 mL/min/kg and the “Cmax” value was 471.6 ng/mL. For the same substance, the “MRT” value was 27.9 h, the “Tmax” value was 12.0 h and the “Vz” value was 0.5469 L/kg. The “Terminal HL” value was 13.1 h, the “Mean serum Conc.” value (1 hr) was 25.7 ng/mL and the “Mean serum Conc.” value (2 hr) was 98.9 ng/mL. For the same substance, the “Mean serum Conc.” value (4 hr) was 248.5 ng/mL, the “Mean serum Conc.” value (8 hr) was 343.5 ng/mL and the “Mean serum Conc.” value (12 hr) was 457.3 ng/mL. For the same substance, the “Mean serum Conc.” value (25 hr) was 518.5 ng/mL, the “Mean serum Conc.” value (34 hr) was 270.4 ng/mL and the “Mean serum Conc.” value (50 hr) was 104.0 ng/mL. For the same substance, the “Mean serum Conc.” value (58 hr) was 63.5 ng/mL, the “Mean serum Conc.” value (73 hr) was 26.0 ng/mL and the “Mean serum Conc.” value (80 hr) was 22.6 ng/mL. The “Mean serum Conc.” value (pre-dose (PD)) was “BQL” and the “In vivo PK Term HL” value was 13.1 h.

For “RLX-A-BW28-20KPEG-001: relaxin variant, B1 Ala, pAF at B chain position W28, 20K PEGylated (chain 1 QLYSALANKCCHVGCTKRSLARFC; chain 2 ASWMEEVIKLCGRELVRAQIAICGMST[Phe(4-Ac)](PEG 20 kDa)S; not fully specified (bridges); ends and bridges not checked)”, the “AUCinf” value was 22191.2 ng·h/mL, the “CL (mL/hr)” value was 0.375 mL/min/kg and the “Cmax” value was 511.0 ng/mL. The “MRT” value was 31.1 h, the “Tmax” value was 25.0 h and the “Vz” value was 0.4526 L/kg. For the same substance, the “Terminal HL” value was 13.9 h, the “Mean serum Conc.” value (1 hr) was 36.4 ng/mL and the “Mean serum Conc.” value (4 hr) was 228.5 ng/mL. For the same substance, the “Mean serum Conc.” value (8 hr) was 380.9 ng/mL, the “Mean serum Conc.” value (12 hr) was 486.6 ng/mL and the “Mean serum Conc.” value (25 hr) was 511.0 ng/mL. For the same substance, the “Mean serum Conc.” value (34 hr) was 404.8 ng/mL, the “Mean serum Conc.” value (50 hr) was 184.2 ng/mL and the “Mean serum Conc.” value (58 hr) was 122.3 ng/mL. The “Mean serum Conc.” value (73 hr) was 48.8 ng/mL, the “Mean serum Conc.” value (80 hr) was 37.1 ng/mL and the “Mean serum Conc.” value (pre-dose (PD)) was “BQL”. For the same substance, the “In vivo PK Term HL” value was 13.9 h.

Reference: US11786578B2, “Modified relaxin polypeptides and their uses” (AMBRX, INC., priority 2010, dated 2023)
